In paper PMC11310207 (Scientific Reports, 2024):
Square brackets hold non-standard residues; d marks the D form. Ends that are not written are not given here. * marks the point of attachment. Dnp = O=[N+]([O-])c1ccc(*)c([N+](=O)[O-])c1; Mca = COc1ccc2c(CC(=O)*)cc(=O)oc2c1

What was measured:
[1] = target: human neurolysin (hNln), Ser38-Pro704, N-terminal 6xHis-tag, used in the activity assays (human, UniProt Q9BYT8 38-704); test: enzyme inhibition
[2] = target: rNln (Met37–Ser704), C-terminal 6xHis-tag, catalytically active (UniProt P42676 37-704); test: fluorescence polarisation

Binder	binding result [1]	also measured
YGGFLRR [dynorphin A (1–7)]	binds	
YGGFLRRIRP [dynorphin A (1–10)]	binds	
Mca-PLGP[dK](Dnp)-OH [Mca–Pro–Leu–Gly–Pro–D–Lys(DNP)–OH, quenched fluorogenic substrate of Nln]	binds	
YGGFLRRIRPK [dynorphin A (1–11)]	binds	
YGGFLRRIRPKL [dynorphin A (1–12)]		Ki [1]: 0.9 µM
{FAM}-GGFLRRIRPKLK [FAM-GGFLRRIRPKLK, N-terminally FAM-labeled Dyn A (2–13)]		Kd [2]: 1.47 µM
